Laboratory results reported in patent US9428586B2, “Heparanase splice variant” (COMPUGEN LTD, priority 2010, dated 2016).

Tests used:
HUVEC = experiment: Tube-like structure formation on Matrigel; type: cell-based, human; conditions: T5 lenti virus infected HUVEC vs Vo, 24 h and 48 h
Procedure: FIG. 9. A. Tube-like structure formation. Human umbilical vein endothelial cells (HUVEC) were infected with control (Vo) or T5 lenti virus constructs and plated on reconstituted basement membrane (Matrigel). Spontaneous organization into tube-like structures was examined after 24 h (upper panels) and 48 h (lower panels). Note network stabilization upon T5 over expression at 48 h. B Immunofluorescent staining of control (Vo), heparanase-, and T5-infected HUVEC cells applying anti-heparanase 733 antibody (green, left panels). Merged images with nuclear staining (Topro, red) are shown in the right panels. Note T5 localization to endocytic vesicles.

Concanavalin A = Concanavalin A (Canavalia ensiformis, UniProt P02866); conditions: lysates of over expressing 293 cells
Procedure: FIG. 7. […] A. Cell lysates. […] Control (Vo), heparanase and T5 transfected 293 cells were left untreated (−) or incubated with heparin (+, 50 μg/ml) for 20 h under serum-free conditions. […] B,C. Peptide analysis. Peptides corresponding to the heparin binding domain of heparanase (KKDC) or T5 (CKKK) which includes its unique three amino acids (SKK), and control scrambled (Scr) peptide were subjected to gel electrophoresis prior to or following incubation with heparin beads (+Heparin). C. Enzymatic activity.

[1] = test system: CAG myeloma, FaDu pharynx carcinoma and 293 cells; experiment: Colony formation in soft agar; type: cell-based, human; conditions: over expression in CAG myeloma, FaDu and 293 cells
Procedure: FIG. 4. T5 augments cell proliferation. A. BrdU incorporation. Morphology of control (Con), heparanase (Hepa)- and T5-infected CAG myeloma cell cultures is shown in the upper panels. […] Sub-confluent cultures of control (Vo), heparanase (Hepa)- and T5-infected CAG cells were grown in serum-free medium for 20 h followed by incubation with BrdU (1:1000) for 2 h. Cells were then fixed and immunostained with anti BrdU monoclonal antibody. Positively stained, red-brown nuclei were counted vs. blue, hematoxilin counter-stained nuclei. At least 1000 cells were counted for each cell type and the percentage of positively stained cells is noted in each panel. Fold increase in BrdU incorporation is shown graphically on the right panel. Gene silencing. 293 cells were transfected with anti-GFP (si-GFP), anti-heparanase (si-Hepa) or anti-T5 siRNA oligonucleotides and BrdU incorporation was evaluated as above except that cells were kept in serum-containing medium (lower panels). Note 2-fold decrease in BrdU incorporation following heparanase or T5 gene silencing (lower right panel). B. Colony formation in soft agar. […]
Three ml of DMEM containing 0.5% low melt agarose (Bio-Rad, Hercules, Calif.) and 10% fetal calf serum was poured into 60 mm petri dishes. […] Colonies were visualized and counted under a microscope after 2-5 weeks, as described.

Src = Src phosphorylation (immunoblot, densitometry) in 293 cells; type: cell-based, human; conditions: over expressing 293 cells, serum-free
Procedure: FIG. 3. T5 augments Src phosphorylation. A. Over expression. CAG myeloma (left) and 293 (right) cells infected with heparanase (Hepa), T5, or control empty vector (Vo) were grown in the absence (-) or presence (+) of heparin (50 μg/ml) under serum-free conditions. Total cell lysates were subjected to immunoblotting applying anti-heparanase 1453 (upper and second panels), anti-phospho-Src (p-Src, third panels), anti-Src (fourth panels) anti-phospho-Erk (p-Erk, fifth panels), and anti-Erk2 (sixth panels) antibodies. Src phosphorylation index was calculated by densitometry analysis of phosphorylated Src levels divided by the total Src values. […] B. Gene silencing. Parental 293 cells were transfected with anti-heparanase, anti-T5, or control siRNAs. Total RNA was extracted and RT-PCR analysis was performed applying T5 (upper panel), heparanase (Hepa, second panel) and GAPDH (third panel) specific primers. Corresponding cell lysates were subjected to immunoblotting applying phospho-Src (p-Src, fourth panel), Src (fifth panel), phospho-Erk (p-Erk, sixth panel) and Erk2 (seventh panel) antibodies. Src phosphorylation index was calculated as above and is shown graphically in the lower panel. Note decreased Src phosphorylation levels upon T5 down regulation. […]

B1: T5: novel splice variant of heparanase; truncated, enzymatically inactive 169 amino acid protein (protein, listed as Homo sapiens)
chain: MLLRSKPALPPPLMLLLLGPLGPLSPGALPRPAQAQDVVDLDFFTQEPLHLVSPSFLSVTIDANLATDPRFLILLGSPKLRTLARGLSPAYLRFGGTKTDFLIFDPKKESTFEERSYWQSQVNQDICKYGSIPPDVEEKLRLEWPYQEQLLLREHYQKKFKNSTYSSKK
endothelial cell organization (tube formation) on Matrigel (HUVEC): maintained for a relatively long period of time | interaction with the lectin Concanavalin A (Concanavalin A): retained | colony number, size and cell density in soft agar [1]: markedly increased | Src phosphorylation enhancement vs control Vo cells (Src): ~4 fold
